Legend:
Settings in all cases: both partners purified
[1] = molecular target: T1, terbium-labeled core RNA polymerase (E. coli, UniProt P0A7Z4 1-329; P0A8V2 1-1342; P0A8T7 1-1407; P0A800 1-91, CS124-DTPA-Phe-NCS-Tb-chelate on randomly labeled lysine residues of core RNAP, 1:1 ratio of Tb-chelate to molecule of core; which subunit is not told | CS124-DTPA-Phe-NCS-Tb-chelate on randomly …); assay: FRET or BRET; LRET saturation binding, homogeneous; fluorescein-sigma serially diluted, 10 nM Tb-core; TG (50 mM Tris-HCl pH 7.9, 5% glycerol) + 500 mM NaCl; 1 h at 22°C; [core]0 set at 5 nM in the fit
T1 construct: E. coli RNA polymerase α subunit; E. coli RNA polymerase β subunit; E. coli RNA polymerase β' subunit; E. coli RNA polymerase ω subunit; also called Tb-core; Tb-core RNAP; copies: 2 + 1 + 1 + 1

[2] = molecular target: T1, terbium-labeled core RNA polymerase; assay: FRET or BRET; LRET saturation binding, homogeneous; fluorescein-sigma serially diluted, 10 nM Tb-core; TG (50 mM Tris-HCl pH 7.9, 5% glycerol) + 500 mM KGlu; 1 h at 22°C; [core]0 set at 5 nM in the fit
[3] = molecular target: T1, terbium-labeled core RNA polymerase; assay: FRET or BRET; LRET saturation binding, homogeneous; fluorescein-sigma serially diluted, 10 nM Tb-core; TG (50 mM Tris-HCl pH 7.9, 5% glycerol) + 100 mM NaCl; 1 h at 22°C; [core]0 set at 5 nM in the fit
[4] = molecular target: T1, terbium-labeled core RNA polymerase; assay: FRET or BRET; LRET saturation binding, homogeneous; fluorescein-sigma serially diluted, 10 nM Tb-core; TG (50 mM Tris-HCl pH 7.9, 5% glycerol) + 100 mM KGlu; 1 h at 22°C; [core]0 set at 5 nM in the fit
[5] = molecular target: T1, terbium-labeled core RNA polymerase; assay: FRET or BRET; LRET saturation binding, homogeneous; fluorescein-sigma serially diluted, 10 nM Tb-core; TG (50 mM Tris-HCl pH 7.9, 5% glycerol) + 250 mM KGlu; 1 h at 22°C; [core]0 set at 5 nM in the fit
[6] = molecular target: T1, terbium-labeled core RNA polymerase; assay: FRET or BRET; LRET saturation binding, homogeneous; fluorescein-sigma serially diluted, 10 nM Tb-core; TG (50 mM Tris-HCl pH 7.9, 5% glycerol) + 250 mM NaCl; 1 h at 22°C; [core]0 set at 5 nM in the fit

T1 sequence (P0A7Z4 whole entry, chain 1 of 4): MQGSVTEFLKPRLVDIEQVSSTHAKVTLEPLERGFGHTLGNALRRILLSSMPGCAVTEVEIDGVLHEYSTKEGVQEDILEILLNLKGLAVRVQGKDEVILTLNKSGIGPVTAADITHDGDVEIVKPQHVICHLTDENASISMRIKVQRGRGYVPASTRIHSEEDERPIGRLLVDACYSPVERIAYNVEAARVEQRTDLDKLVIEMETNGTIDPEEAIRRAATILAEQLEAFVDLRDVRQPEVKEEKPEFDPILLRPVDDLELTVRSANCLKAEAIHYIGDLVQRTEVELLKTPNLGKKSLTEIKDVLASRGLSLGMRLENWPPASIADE
T1 sequence (P0A8V2 whole entry, chain 2 of 4): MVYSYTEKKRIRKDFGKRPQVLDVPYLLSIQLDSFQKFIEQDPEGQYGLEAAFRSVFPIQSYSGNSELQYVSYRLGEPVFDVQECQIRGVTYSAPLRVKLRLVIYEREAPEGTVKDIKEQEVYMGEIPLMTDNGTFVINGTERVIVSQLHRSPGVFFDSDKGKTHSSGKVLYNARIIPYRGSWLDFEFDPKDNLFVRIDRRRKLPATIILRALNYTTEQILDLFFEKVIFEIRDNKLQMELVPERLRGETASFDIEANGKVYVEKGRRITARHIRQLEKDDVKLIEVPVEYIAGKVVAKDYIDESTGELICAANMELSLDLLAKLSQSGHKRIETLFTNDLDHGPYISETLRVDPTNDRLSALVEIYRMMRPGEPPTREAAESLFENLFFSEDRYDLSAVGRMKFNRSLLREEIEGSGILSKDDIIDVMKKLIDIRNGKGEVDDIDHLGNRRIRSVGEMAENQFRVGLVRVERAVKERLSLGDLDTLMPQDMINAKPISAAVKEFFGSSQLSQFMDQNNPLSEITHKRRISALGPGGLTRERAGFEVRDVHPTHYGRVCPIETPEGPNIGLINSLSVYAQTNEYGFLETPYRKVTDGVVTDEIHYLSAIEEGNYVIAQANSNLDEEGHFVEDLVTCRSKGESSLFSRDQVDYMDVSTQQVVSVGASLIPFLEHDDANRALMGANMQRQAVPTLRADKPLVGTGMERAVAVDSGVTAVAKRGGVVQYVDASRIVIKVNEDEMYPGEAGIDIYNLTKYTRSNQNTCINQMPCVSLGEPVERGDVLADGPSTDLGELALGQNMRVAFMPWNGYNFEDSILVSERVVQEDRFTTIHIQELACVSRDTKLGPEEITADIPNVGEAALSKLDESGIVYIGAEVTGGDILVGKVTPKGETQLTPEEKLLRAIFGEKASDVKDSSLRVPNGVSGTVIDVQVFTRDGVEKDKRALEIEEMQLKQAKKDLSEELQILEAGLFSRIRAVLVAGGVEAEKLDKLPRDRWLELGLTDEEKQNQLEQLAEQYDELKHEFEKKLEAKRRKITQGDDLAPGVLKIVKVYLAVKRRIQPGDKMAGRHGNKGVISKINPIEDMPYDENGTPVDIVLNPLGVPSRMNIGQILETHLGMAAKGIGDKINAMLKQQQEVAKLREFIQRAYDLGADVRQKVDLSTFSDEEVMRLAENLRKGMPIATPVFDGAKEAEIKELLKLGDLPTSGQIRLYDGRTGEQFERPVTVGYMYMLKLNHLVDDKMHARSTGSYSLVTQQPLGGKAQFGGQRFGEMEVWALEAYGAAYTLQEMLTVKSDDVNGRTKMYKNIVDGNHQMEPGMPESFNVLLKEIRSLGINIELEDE
T1 sequence (P0A8T7 whole entry, chain 3 of 4): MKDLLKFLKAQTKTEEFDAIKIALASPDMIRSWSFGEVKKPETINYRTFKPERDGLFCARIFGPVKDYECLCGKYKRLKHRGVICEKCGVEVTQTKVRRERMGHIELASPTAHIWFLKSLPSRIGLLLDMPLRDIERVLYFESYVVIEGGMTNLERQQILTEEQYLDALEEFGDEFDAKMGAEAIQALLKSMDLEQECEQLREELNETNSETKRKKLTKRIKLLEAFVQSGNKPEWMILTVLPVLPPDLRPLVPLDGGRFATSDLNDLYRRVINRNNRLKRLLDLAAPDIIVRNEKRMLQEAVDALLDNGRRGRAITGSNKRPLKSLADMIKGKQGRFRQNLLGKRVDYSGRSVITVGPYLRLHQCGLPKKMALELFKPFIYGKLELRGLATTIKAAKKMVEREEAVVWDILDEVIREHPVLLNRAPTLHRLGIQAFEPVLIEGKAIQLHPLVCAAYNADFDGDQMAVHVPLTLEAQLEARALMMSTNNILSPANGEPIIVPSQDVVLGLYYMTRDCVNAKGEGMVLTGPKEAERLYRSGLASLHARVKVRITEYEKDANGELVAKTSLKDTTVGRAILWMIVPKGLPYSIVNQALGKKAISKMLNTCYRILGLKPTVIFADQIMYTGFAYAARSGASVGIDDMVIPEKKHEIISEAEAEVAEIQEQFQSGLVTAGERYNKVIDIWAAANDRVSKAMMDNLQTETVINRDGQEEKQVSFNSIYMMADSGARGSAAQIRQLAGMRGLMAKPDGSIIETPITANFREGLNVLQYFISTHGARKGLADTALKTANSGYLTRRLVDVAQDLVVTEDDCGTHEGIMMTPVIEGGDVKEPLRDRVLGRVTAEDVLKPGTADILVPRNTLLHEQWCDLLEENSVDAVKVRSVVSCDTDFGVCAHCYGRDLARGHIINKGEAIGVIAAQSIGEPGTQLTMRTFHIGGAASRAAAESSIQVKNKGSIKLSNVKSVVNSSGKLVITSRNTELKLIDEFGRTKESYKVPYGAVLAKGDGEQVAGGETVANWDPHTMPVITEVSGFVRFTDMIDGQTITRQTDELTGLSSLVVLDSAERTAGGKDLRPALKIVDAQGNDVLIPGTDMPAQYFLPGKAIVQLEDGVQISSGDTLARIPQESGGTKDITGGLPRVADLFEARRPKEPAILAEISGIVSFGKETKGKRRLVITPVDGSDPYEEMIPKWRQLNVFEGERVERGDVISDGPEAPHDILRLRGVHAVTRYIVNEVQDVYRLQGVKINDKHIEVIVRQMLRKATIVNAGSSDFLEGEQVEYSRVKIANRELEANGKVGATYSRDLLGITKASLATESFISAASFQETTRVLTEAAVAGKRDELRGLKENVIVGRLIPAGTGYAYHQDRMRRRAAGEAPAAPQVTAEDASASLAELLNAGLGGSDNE
T1 sequence (P0A800 whole entry, chain 4 of 4): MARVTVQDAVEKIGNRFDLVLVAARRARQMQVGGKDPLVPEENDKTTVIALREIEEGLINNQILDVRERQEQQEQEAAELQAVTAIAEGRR

B1: fluorescein-σ32 (natural protein, E. coli, UniProt P0AGB3 1-284, looked up)
chain: MTDKMQSLALAPVGNLDSYIRAANAWPMLSADEERALAEKLHYHGDLEAAKTLILSHLRFVVHIARNYAGYGLPQADLIQEGNIGLMKAVRRFNPEVGVRLVSFAVHWIKAEIHEYVLRNWRIVKVATTKAQRKLFFNLRKTKQRLGWFNQDEVEMVARELGVTSKDVREMESRMAAQDMTFDLSSDDDSDSQPMAPVLYLQDKSSNFADGIEDDNWEEQAANRLTDAMQGLDERSQDIIRARWLDEDNKSTLQELADRYGVSAERVRQLEKNAMKKLRAAIEA
modifications: fluorescein on randomly labeled lysine residues, 2:1 ratio of fluorescein to molecule of protein
notes: E. coli heat shock sigma factor σ32 (RpoH); also called F-σ32; RpoH
B1 showed a Kd [1] of 2.4 nM, a Kd [2] of 2 nM and a Kd [3] of 0.8 nM. It also gave a Kd [4] of 0.3 nM, a Kd [5] of 1.3 nM and a Kd [6] of 0.6 nM.

— paper PMC2715106 (PLoS ONE, 2009)
